From the supplement of paper PMC9170038

Tested on: MS2 coat protein
Experiment: apparent KD of MS2 coat protein; designed switch direction (-1 OFF switch, 1 ON switch): -1; higher = weaker reporter binding
Outline: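 Normalised cluster fluorescence was curve-fitted, and each design's median over clusters is its apparent KD. Before this, SNAP-549-labelled MS2 coat protein was titrated from 0.7 or 1.5 nM, doubling to 3 µM, over RNA switches transcribed on Illumina chips by stalled E. coli RNA polymerase. Titrations had no input, 200 uM small-molecule ligand, or an oligonucleotide input, and steps lasted 0.8–1.5 h (lowest) to 10–20 min (highest).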

[1] = Eterna round: R95, input ligand: FMN 200 uM
[2] = Eterna round: R95, input ligand: microRNA oligo, concentration not stated
[3] = Eterna round: R95, input ligand: none
[4] = input ligand: microRNA oligo, concentration not stated

Sequence | apparent KD of MS2 coat protein [1] | apparent KD of MS2 coat protein [2] | apparent KD of MS2 coat protein [3] | apparent KD of MS2 coat protein (input ligand: FMN 200 uM) | apparent KD of MS2 coat protein (input ligand: none) | apparent KD of MS2 coat protein [4]
AACCCUAGGGUCAGACGCACAAGCUUUUUGCUCGUUUUAACAUGAGGAUCACCCAUGUCUAGUGGAUCUGAUCGGGC [Isreen] (puzzle: Sensor v3, turn-off variant 2) | 24.7 nM | 137 nM | 26.2 nM | – | – | –
GACCAGGUAGGAUAUGCUGGGUCGGACUUGAGGAUCACCCAAGUGGCCAAAGUGCGUCCCGCAGAAGGGCCGAAAA [Inanorxeti] (Eterna round: R97, puzzle: Exclusion 5) | – | – | – | 81.6 nM | 827 nM | –
AAGAAACAUGAGGAUCACCCAUGUGAGGAUAUGAUGAAGAAAAGAAAAGAAAGAAGAGUCAGAAGGCACAAAGG [salish99-ex1_r3_064] (puzzle: Exclusion 1) | 96 nM | 55.9 nM | 69.2 nM | – | – | –
UUUAAUGGAAUUAAGAUCACAUGAGGAUCACCCAUGUAUAUAUAGGAUAUCAGCUCGUGUAGAGCUGAGAAGGAUAUAUACAUA [ExNG3/6-B3] (Eterna round: R96, puzzle: Exclusion NG 3) | – | – | – | 208 nM | 185 nM | 344 nM
AAAUGCAGGUAAAGAUUCUACAUGAGGAUCACCCAUGUGCUCGUCUUAUAAAGUACUAUCACGAAAGUGAUAGUACA [Sensor 3, v1 - 41] (puzzle: Sensor v3, turn-off variant 1) | 27.6 nM | 268 nM | 26.6 nM | – | – | –
GUAAACGAAGAGGAUAUUUGAUAUCAAAGCUUCAAAGAAGGCUUCACAUGAGGAUCACCCAUGUGAUCUUCAAA [Mat - Exclusion 6 - JL Mod - D18] (Eterna round: R97, puzzle: Exclusion 6) | – | – | – | 191 nM | 23.3 nM | –
GGUUGGCGAGGAUAUACAUGAGGAUCACCCAUGUGGUCCUAAAAUAAAAUAGACCUUUGUAGAAGGCGCGGGUC [salish99_ex3_r4_040] (Eterna round: R97, puzzle: Exclusion 3) | – | – | – | 139 nM | 215 nM | –
CAUACGGCAGGAUAUGCGUGGCCAUCUUAGCUCUACCUAAGACAUGAGGAUCACCCAUGUAGAAGGGUUACAUA [Eternabot (Original) Solution 41] (Eterna round: R97, puzzle: Exclusion 2) | – | – | – | 20.5 nM | 19.8 nM | –
GAGGCUAAAGGAUAUACAUGAGGAUCACCCAUGUGGAGGAAGGUUAGAUGAGGAGAAGGUAGAAGGUUAGGCGA [JR_Exclu3_Sub093] (puzzle: Exclusion 3) | 29.7 nM | 23.6 nM | 28.6 nM | – | – | –
AAAUACAAGCAAAGAUCUUACAUGAGGAUCACCCAUGUGUUCGUCUUAUAAAGUACUAUCACGAAAGUGAUAGUACA [Sensor 3, v1 - 32] (puzzle: Sensor v3, turn-off variant 1) | 14 nM | 89.7 nM | 15.4 nM | – | – | –
CUCCUGUAAGGAUAUCUGACAAGUGACGAAAGUCACAGUUCAGAGAAGGUACAUGAGGAUCACCCAUGUAGAAC [Exclusion 4 - Mod Brourd Ex 4-3: 41 v.2] (puzzle: Exclusion 4) | – | 31 nM | – | – | – | –
UUAAUGAUUGUGAGGAUAUUUCAUAGAUAGAUAUUAGAGAAGGUACAUGAGGAUCACCCAUGUGUGAUUAGAGA [Brourd's EX4 #71] (Eterna round: R97, puzzle: Brourd's mod of Exclusion 4) | – | – | – | 89.7 nM | 93.5 nM | –
GGUAGAGUGGUAGGAUAUCCGUCUGUUUCAGUCGGAGAAGGACCACAGUCACUGGGUCCAUGUUUCAUGGAGACCUGAUCUACC [pwkr exNG1 F6.9] (Eterna round: R96, puzzle: Exclusion NG 1) | – | – | – | 26.9 nM | 130 nM | 59.7 nM
UGCGGGCUUUUGAGACCUCACAUGAGGAUCACCCAUGUGCUUGUCUUGUAAGUGGGUAGGUCGUUGGCUGACUCACA [Sensor-V1 #100] (Eterna round: R97, puzzle: Sensor, turn-off variant 1) | – | – | – | 18.8 nM | 17.5 nM | –
CAUAUGUGAGGAUAUGACAAUGGUAUCUUCGGAUACCAUUGUCAGAAGGCACAUGAGGAUCACCCAUGUGGAUC [Exclusion 4 - Mod Brourd Ex 4-3: 20 v.5] (puzzle: Exclusion 4) | – | 151 nM | – | – | – | –
CAUGCUUCAUAGGAUAUGGAAGACGUACCGUCGCUAGAAGGAUGAACAUGAGGAUCACCCAUGUAAUACAGGGC [Eternabot (L2) Solution 64] (Eterna round: R97, puzzle: Exclusion 6) | – | – | – | 169 nM | 68.6 nM | –
ACAUGAGGAUCACCCAUGUCGAGUACAUGAGGAUCACCCAUGUAGGAUAUGGUUCGCUUUGCGUGCUAGAAGGAUAUGUGAUGA [salish99_ExNG3_r04_512] (Eterna round: R96, puzzle: Exclusion NG 3) | – | – | – | 488 nM | 326 nM | 229 nM

Sequence | apparent KD of MS2 coat protein [1] | apparent KD of MS2 coat protein [2] | apparent KD of MS2 coat protein [3] | apparent KD of MS2 coat protein (input ligand: FMN 200 uM) | apparent KD of MS2 coat protein (input ligand: none) | apparent KD of MS2 coat protein [4]
AGCUGUGGCCGAGGAUAUCCAACCUUAAAUACCGACGUAUAGUCGGACAUGAGGAUCACCCAUGUGGAGAAGGCGGUCUCAGCA [Eli eng2 - 039] (Eterna round: R96, puzzle: Exclusion NG 2) | – | – | – | 62.5 nM | 47.1 nM | 28 nM
GGAAGGCGAGGAUAUACAAUAAAGAAAGGGAAAGACGUGAGACAUGAGGAUCACCCAUGUAGAAGGCGCGGAGA [AK-MS2ROC-r4-exclusion2-12] (Eterna round: R97, puzzle: Exclusion 2) | – | – | – | 40.1 nM | 32.4 nM | –
AGUACUAACACGAAAGUGUUAGUACUAUAAGCUUGUGAUACAUGAGGAUCACCCAUGUCCUCAUAAGCUCGUCUUAU [Mat - Sensor v3 - Turn-off var 2 - D101] (Eterna round: R96, puzzle: Sensor v3, turn-off variant 2) | – | – | – | 21.1 nM | 21.7 nM | 477 nM
AAAGUAGGAGGAUAUGGAUAUAGUAACAUGAGGAUCACCCAUGUUCUUGGUGUUCGUUACCCAGAAGGCCUGACAC [Eternabot (L1) Solution 64] (Eterna round: R97, puzzle: Exclusion 5) | – | – | – | 184 nM | 91 nM | –
UUUUGGCAUGUAGGAUAUGGGUCCGAUUAGGAUUUAGAAGGACAUGAGGAUCACCCAUGUGCAUUUAAUUGGUCUUUACUUUUU [EXclNG1-LROPPY13] (Eterna round: R96, puzzle: Exclusion NG 1) | – | – | – | 115 nM | 72.9 nM | 61.2 nM
UCUUAUUGCAAGGAUAUGCAAAUUAUUUUUUAAGCAGAAGGUGCAACAUGAGGAUCACCCAUGUUUCCGGGCAA [JR_E6_Sub038] (puzzle: Exclusion 6) | – | 16.8 nM | – | – | – | –
AAGAACAGAGGAUAUCGCGGGCAGCACAUGAGGAUCACCCAUGUGAUGCUCCGCGGGCCGCGAGAAGGCUGAAAUG [Dizabe] (puzzle: Exclusion 5) | 14.2 nM | 9.5 nM | 12.9 nM | – | – | –
GAUUGCUCGUCUUGAAAACACAUGAGGAUCACCCAUGUAACUAGGGAAACCACGAUUAUAUUCGCUUUUCAGUGUAA [Eternabot (L2) Solution 2] (Eterna round: R97, puzzle: Sensor, turn-off variant 1) | – | – | – | 29.6 nM | 34.2 nM | –
ACUCGACAUGAGGAUCACCCAUGUGAGGAUAUGGCCUGUAUGGCGUGAGCUGGAUCAAUCAGAAGGCGCGUGGG [salish99_ex1_r4_052] (Eterna round: R97, puzzle: Exclusion 1) | – | – | – | 80.4 nM | 56 nM | –
CCUCUACAUGAGGAUCACCCAUGUGAGGAUAUAAGAUUGCGGAUUCCGCACUACGGUCUUAGAAGGCGCGUGGA [Texebibia] (puzzle: Exclusion 1) | – | 17.2 nM | – | – | – | –
AACCAGAUGAAACACAGGCACAUGAGGAUCACCCAUGUCUUAGAGCAUUCGGGUAAUCGGCUCGUUUUAAUUAGAAC [Eternabot (L1) Solution 22] (Eterna round: R97, puzzle: Sensor, turn-off variant 1) | – | – | – | 279 nM | 344 nM | –
AGGAGUGAAGGAUAUACAUGAGGAUCACCCAUGUGGGAGGAAAGAGGUGAUGGAGAUAGUAGAAGGUCAGGAUG [JR_Exclusion3_Sub005] (puzzle: Exclusion 3) | 99.9 nM | 93.9 nM | 116 nM | – | – | –
UAUCGGGACUGAGGAUAUUCGUUCGAACACGAAGAAGAAGGUAGUGUCAGGGACAUGAGGAUCACCCAUGUGAUCUCAGUCCUA [JL ViennaUCT Erinle mod 2] (Eterna round: R96, puzzle: Exclusion NG 1) | – | – | – | 130 nM | 100 nM | 67.9 nM
ACACAGCAAGGAUAUACAUGAGGAUCACCCAUGUGGUGGCCGUUACGGUAGGACUAGUGUAGAAGGUGCAUUGG [EX3 #32] (Eterna round: R97, puzzle: Exclusion 3) | – | – | – | 637 nM | 469 nM | –
GACAGACGAGCGUGAGCCGACAUGAGGAUCACCCAUGUGCUCGUCUUAUAACGUACUGUCACGUUAGUGAUAGUGCG [Sensor v3, turn-off variant 1 (MOD of Eli's v1-13 v.4)] (puzzle: Sensor v3, turn-off variant 1) | 54.3 nM | 42.7 nM | 56.7 nM | – | – | –
UUUAAUUUUUUUUUUUUACAAGCUUUUUGCUCGUCUUAUACAUGAGGAUCACCCAUGUGGGUAGAAAAUAAAUUAUC [JMF 91] (puzzle: Sensor v3, turn-off variant 2) | 44.1 nM | 65.2 nM | 48.7 nM | – | – | –
